Results on 3 substances are retold here after PMC2562019.

Experiment [1] deals with Recombinant HGF receptor (c-met)/fc chimera (UniProt P08581). Description: SPR; Biacore 2000, 25°C; c-Met/Fc chimera amine-coupled to a CM5 chip; medium conditioned by a healthy donor's blood (endogenous HGF, positive control) injected.
The target is the same in experiment [2]. As to the kind of experiment: SPR; Biacore 2000, 25°C; c-Met/Fc chimera amine-coupled to a CM5 chip; supernatant of buffy coat (before or after haemolysis by freezing) or serum of one donor, diluted 1:20 in PBS pH 7.4.
The target is the same in experiment [3]. Description: SPR; Biacore 2000, 25°C; c-Met/Fc chimera amine-coupled to a CM5 chip; medium conditioned by a healthy donor's blood (endogenous HGF, positive control) injected. The source holds these as a separate data set.
The target is the same in experiment [4]. Description: SPR; Biacore 2000, 25°C; c-Met/Fc chimera amine-coupled (EDC/NHS) to a CM5 chip (22113 or 22377 RU); reconstituted rHGF injected at the stated concentrations; response read after the end of the injection (dissociation phase). (In SPR one partner is held on a chip, and binding of the other changes the refractive index at the surface.)

Like-named read-outs stand apart in the source and are kept apart here.

Chain of UniProt P08581 (P08581 25-932, change not shown): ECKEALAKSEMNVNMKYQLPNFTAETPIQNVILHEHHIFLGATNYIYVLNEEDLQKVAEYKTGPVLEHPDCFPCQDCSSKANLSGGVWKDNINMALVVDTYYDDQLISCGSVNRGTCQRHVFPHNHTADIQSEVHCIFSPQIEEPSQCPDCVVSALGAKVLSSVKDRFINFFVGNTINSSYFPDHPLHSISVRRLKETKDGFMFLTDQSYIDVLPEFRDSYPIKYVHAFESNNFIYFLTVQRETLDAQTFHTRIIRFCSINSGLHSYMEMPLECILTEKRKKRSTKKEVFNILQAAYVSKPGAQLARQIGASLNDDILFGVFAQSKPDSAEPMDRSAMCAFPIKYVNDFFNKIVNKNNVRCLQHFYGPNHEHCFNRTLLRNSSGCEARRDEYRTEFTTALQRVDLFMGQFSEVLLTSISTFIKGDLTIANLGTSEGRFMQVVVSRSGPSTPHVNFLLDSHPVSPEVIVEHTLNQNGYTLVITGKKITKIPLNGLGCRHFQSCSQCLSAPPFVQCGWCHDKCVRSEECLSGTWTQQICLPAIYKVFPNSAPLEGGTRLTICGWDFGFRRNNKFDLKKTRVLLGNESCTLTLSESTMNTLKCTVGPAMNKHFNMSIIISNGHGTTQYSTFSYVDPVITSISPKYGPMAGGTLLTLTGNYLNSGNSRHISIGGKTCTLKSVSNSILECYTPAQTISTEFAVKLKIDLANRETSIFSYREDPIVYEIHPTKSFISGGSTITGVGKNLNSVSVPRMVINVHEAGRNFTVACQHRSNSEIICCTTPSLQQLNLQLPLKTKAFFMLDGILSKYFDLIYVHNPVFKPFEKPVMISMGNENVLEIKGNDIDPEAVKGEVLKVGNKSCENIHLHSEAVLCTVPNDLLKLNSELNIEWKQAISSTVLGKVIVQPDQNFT

For “Endogenous HGF from human blood (ligand)”, the SPR response in experiment [1] is 403 RU. Further, in experiment [2], the SPR response, buffy coat supernatant 1:20 came out at 247 RU; the SPR response, haemolysed buffy coat 1:20 was determined as 163 RU; the SPR response, serum 1:20 was found to be 317 RU. Also, in experiment [3], the SPR response was 209 RU.
Turning to “Recombinant human hepatocyte growth factor, lot GJ175031 (from UniProt P14210 32-728) (ligand)”, in experiment [4], the SPR response at 0.8 μg/ml was 120 RU, the SPR response at 4 μg/ml turned out to be 201 RU and the SPR response at 5 μg/ml came to 265 RU.
In the case of “Recombinant HGF, R&D carrier-free, lot GJ174034 (from UniProt P14210 32-728) (ligand)”, in experiment [4], the SPR response at 2.5 μg/ml after 15 h at room temperature turned out to be 181 RU; the SPR response at 2.5 μg/ml after 15 h at −20°C and thawing turned out to be 94 RU; the SPR response at 2.5 μg/ml, freshly reconstituted came out at 194 RU.
